Source: publication PMC10783497
“And” between values parts separate entries of the source, which are not always exact repeats. Equal entries are not always repeated.

Biological target: streptavidin (on Sera-Mag magnetic microparticles) (UniProt P22629)
Test: magnetic bead pull-down, FAM fluorescence of eluted aptamer
Settings: 1X PBS, or 2 M NaCl, or 2 M CDHP with 1X PBS; 90 min at room temperature; elution in 250 mM NaCl, 500 mM Tris-HCl pH 8.5

streptavidin (on Sera-Mag magnetic microparticles), sequence (P22629 25-183): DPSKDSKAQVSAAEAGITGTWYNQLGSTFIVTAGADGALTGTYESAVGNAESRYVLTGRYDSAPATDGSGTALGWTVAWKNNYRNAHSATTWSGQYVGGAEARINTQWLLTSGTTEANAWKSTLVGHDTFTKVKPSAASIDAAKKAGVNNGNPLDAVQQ

How did the Kd turn out when “ATTGACCGCTGTGTGACGCAACACTCAAT [St-21-1 aptamer]” was run?
The Kd was 94.5 nM and 75.4 nM and 70 nM.
